From PMC5611513, “Structure-Based Prototype Peptides Targeting the Pseudomonas aeruginosa Type VI Secretion System Effector as a Novel Antibacterial Strategy” (Frontiers in Cellular and Infection Microbiology, 2017)

B1: TplEi: cognate periplasmic immunity protein that neutralizes TplE (protein)
chain: CTSFSSSRSSSMDKTGWITHCFGRFLIDLPPDAVINAGYYLWGDRIEYLDDKPTELAARVDRLEQEWRTQRHKSKGNMFLRKIDFGNESVGLLSWSSEVASKTYLLDTYVTSKPTWHVYRWKGKVSVDREQHAVEISRALARNLRSRAPKEIPSEPGFCIDHAYIAGDSFQVERFGVGVTFPEHPGARFEFRSSTGAELNSLLERVDGFVQNMLSTFAGMETLRKGKHPVGSLPGEEYLVAGSDKGQRGYTFMWEVQGKEESLTEPNLTAGLAVLERSNENGKPPPPAFKSDKEALELWDTIVDSIRVRPTSSSPRGGNAGPSPAPKPATPGGQTLGDHYVYEEFLSSLKPKDSWLDDL
B2: TplE: H2-T6SS-dependent antibacterial lipolytic toxin (lipase effector) of P. aeruginosa (protein)
chain: MSSEPLEPNQDVIIPRSRDSLGRPVYKAQLTRTDNQSEKVALIRQTAPLPVIFIPGIMGTNLRNKADKSEVWRPPNGLWPMDDLFASIGALWTWAWRGPKARQELLKAEQVEVDDQGTIDVGQSGLSEEAARLRGWGKVMRSAYNPVMGLMERRLDNIVSRRELQAWWNDEALSPPGDQGEEQGKVGPIDEEELLRASRYQFDVWCAGYNWLQSNRQSALDVRDYIENTVLPFYQKECGLDPEQMRRMKVILVTHSMGGLVARALTQLHGYERVLGVVHGVQPATGSSTIYHHMRCGYEGIAQVVLGRNAGEVTAIVANSAGALELAPSAEYREGRPWLFLCDAQGQVLKDIDGKPRAYPQNQDPYEEIYKNTTWYGLVPEQNSQYLDMSDKKEGLRVGPRDNFEDLIDSIANFHGELSAAGYHSETYAHYGADDSRHSWRDLIWKGDPTPLETPGATLNDDENGTYNSWFRRGLPTIVQGPLETGNPLDASGSGGDETVPTDSGQAPALAGVKASFRHGSKGKGQANTKRGYEHQESYNDARAQWAALYGVIKITQLADWHPNDKGGT

Tested on: E. coli BL21 (DE3)
Experiment: Cell-toxicity assay, spot growth on LB agar
Assay type: cell-based, Escherichia coli
Settings: E. coli BL21 (DE3), 0.045 mM IPTG, 24 h
Protocol: Cell-toxicity assay was carried as previously described with minor modification (Jiang et al., [2016]). […] A 2 μl bacterial dilution was spotted onto LB agar plate containing 0.045 mM IPTG. Images were taken after 24 h growth.
(A) Diagrams of TplE, TplE-TplEi and “L” peptide expressing constructs. Expression of vector sequence and “L” peptide mutant with the PelB signal peptide was used as a control. […] A 10-fold serial dilution of overnight culture was spotted on LB agar plates from left to right. The experiments were performed at least 3 times.

Row | Molecule | effect of co-expression of TplEi on TplE-dependent growth inhibition (TplE-TplEi co-expressed) | growth of E. coli on periplasmic expression of TplE (periplasmic-targeted TplE alone)
1 | B1 | repressed the TplE-dependent growth inhibition | 
2 | B2 |  | significant inhibition of growth
